In patent US20220332804A1 (CSL INNOVATION, published 2022):

Tests used:
human complement C2 [1] = target: T1, human complement C2 (human, UniProt P06681 21-752); test: SPR, mAb captured, C2 analyte, HBS-EP, pH 7.3
T1 construct: Recombinant full-length human C2 with C-terminal 8x His tag, purified from Expi293F supernatant; also called human C2; huC2
T1 sequence: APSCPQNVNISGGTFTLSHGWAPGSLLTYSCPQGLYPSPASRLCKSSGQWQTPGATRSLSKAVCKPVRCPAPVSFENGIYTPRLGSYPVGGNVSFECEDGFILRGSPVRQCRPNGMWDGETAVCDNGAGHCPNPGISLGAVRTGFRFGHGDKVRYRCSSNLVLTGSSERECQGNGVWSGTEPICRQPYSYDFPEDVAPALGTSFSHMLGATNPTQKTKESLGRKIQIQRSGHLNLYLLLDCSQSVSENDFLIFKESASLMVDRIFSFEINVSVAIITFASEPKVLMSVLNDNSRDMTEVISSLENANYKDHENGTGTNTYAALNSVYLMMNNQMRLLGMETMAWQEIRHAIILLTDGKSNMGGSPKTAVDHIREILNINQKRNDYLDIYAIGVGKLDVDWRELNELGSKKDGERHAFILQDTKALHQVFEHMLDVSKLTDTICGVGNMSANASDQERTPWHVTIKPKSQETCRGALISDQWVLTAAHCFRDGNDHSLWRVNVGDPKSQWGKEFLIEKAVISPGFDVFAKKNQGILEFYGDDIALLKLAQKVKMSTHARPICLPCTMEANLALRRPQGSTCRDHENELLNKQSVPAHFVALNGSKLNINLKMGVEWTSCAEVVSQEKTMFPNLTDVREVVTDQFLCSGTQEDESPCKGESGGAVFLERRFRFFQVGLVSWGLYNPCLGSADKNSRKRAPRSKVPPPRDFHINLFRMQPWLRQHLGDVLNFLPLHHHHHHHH

human complement C2 [2] = target: T1, human complement C2; test: cell-based or functional assay
mouse C2 = target: T2, mouse C2 (mouse, UniProt P21180 19-760, limits assumed); test: SPR, mAb captured, mouse C2 analyte, pH 7.3
T2 sequence (looked up): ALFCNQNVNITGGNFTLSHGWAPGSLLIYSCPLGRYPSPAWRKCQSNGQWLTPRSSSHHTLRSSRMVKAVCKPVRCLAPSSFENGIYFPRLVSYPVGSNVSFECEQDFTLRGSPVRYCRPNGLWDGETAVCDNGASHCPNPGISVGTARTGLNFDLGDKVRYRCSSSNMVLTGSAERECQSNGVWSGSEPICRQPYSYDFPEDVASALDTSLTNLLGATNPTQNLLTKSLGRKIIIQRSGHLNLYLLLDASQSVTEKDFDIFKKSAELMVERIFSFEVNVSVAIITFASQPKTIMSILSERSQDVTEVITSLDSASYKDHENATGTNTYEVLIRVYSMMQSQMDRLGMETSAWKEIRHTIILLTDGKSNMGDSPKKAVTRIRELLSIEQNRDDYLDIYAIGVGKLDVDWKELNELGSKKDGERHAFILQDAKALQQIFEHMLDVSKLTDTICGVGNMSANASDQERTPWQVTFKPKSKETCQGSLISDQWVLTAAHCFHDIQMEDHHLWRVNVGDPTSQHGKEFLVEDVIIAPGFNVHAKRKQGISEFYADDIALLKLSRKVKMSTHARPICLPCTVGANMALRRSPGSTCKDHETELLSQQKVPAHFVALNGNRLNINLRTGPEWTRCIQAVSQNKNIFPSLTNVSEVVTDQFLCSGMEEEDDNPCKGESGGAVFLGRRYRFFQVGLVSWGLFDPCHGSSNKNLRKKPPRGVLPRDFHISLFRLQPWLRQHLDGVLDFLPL
Protocol: (§1) Surface plasmon resonance (SPR, Biacore) was used for all binding affinity analyses. In brief, goat anti-human IgG was directly immobilised onto the carboxymethyl dextran surface of CM5 sensorchips to approximately 12,000 RU using standard NHS/EDC chemistry at pH 5. The immobilised antibody surface was pre-conditioned with ten injections of polyclonal human IgG (Privigen 60 s) prepared at 1 μg/mL. Ligands (anti-C2 mAbs) were captured at the beginning of each cycle as described below. An adjacent spot or flow cell in which only Polyclonal IgG was capture was used as a reference surface. The goat anti-human IgG Fc antibody surface was regenerate in 100 mM H3PO4, injected for 45 seconds at the end of each cycle. Experiments were performed at 37° C. and the flow rate of each experiment was kept constant at 30 μL/min.
(§2) In addition to human C2, the pH dependent anti-C2 antibodies were also tested for their ability to bind to C2 from other mammalian species using the SPR methods described above in order to identify suitable surrogate species for in vivo testing. The antibodies were tested for binding at neutral pH against C2 from cynomolgus monkeys, mice, dogs, rabbits, rats, pigs, and sheep.

cynomolgus monkey C2 [3] = target: T3, cynomolgus monkey C2 (cynomolgus monkey, UniProt G8F3W0 21-752); test: cell-based or functional assay
T3 sequence: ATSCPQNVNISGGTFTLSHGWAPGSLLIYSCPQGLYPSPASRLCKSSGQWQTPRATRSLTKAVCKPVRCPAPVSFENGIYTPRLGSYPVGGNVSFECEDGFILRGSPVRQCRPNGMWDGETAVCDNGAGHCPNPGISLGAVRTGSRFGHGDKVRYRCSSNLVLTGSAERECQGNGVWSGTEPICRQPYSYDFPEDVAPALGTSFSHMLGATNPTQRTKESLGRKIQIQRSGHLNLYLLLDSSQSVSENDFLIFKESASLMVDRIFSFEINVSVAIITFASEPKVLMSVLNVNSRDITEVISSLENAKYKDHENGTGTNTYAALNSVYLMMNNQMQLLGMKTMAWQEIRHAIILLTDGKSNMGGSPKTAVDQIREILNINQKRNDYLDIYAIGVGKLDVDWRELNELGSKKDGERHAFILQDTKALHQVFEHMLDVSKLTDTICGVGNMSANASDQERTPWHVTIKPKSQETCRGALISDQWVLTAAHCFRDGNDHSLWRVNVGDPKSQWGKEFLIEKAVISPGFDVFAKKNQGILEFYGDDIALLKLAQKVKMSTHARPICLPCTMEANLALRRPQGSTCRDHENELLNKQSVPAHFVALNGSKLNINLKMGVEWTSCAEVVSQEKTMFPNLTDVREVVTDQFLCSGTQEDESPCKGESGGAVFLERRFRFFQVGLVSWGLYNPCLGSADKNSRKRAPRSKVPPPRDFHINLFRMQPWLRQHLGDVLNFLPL

human complement C2 [4] = target: T1, human complement C2; test: cell-based or functional assay; remark: listed apart in the source
cynomolgus monkey C2 [5] = target: T3, cynomolgus monkey C2; test: SPR, mAb captured, cyno C2 analyte, pH 7.3
Protocol: as §1, §2

human complement C2 [6] = target: T1, human complement C2; test: SPR, mAb captured, C2 analyte, MHAs buffer, pH 7.3
Protocol: as §1
This buffer contains ammonium sulfate instead of sodium chloride.

cynomolgus monkey C2 [7] = target: T3, cynomolgus monkey C2; test: cell-based or functional assay; remark: listed apart in the source
human complement C2 [8] = target: T1, human complement C2; test: SPR, mAb captured, C2 analyte, HBS-EP, pH 6.0, steady state
[9] = target: T4, human complement C2 zymogen (human, UniProt P06681 21-752); test: SPR steady state, captured antibody, analyte huC2 0 mM Ca^2+, pH 6.0
T4 construct: also called huC2; human C2
T4 sequence: T1 sequence
Protocol: as §1
(§3) Calcium concentrations ranged from zero (i.e. no added calcium, control) to near physiological levels (0.02, 0.2 and 2 mM CaCl₂.2H₂O, MW 147.02 Da).

human C2b = target: T5, human C2b (human, UniProt P06681 21-243); test: SPR, HBS-EP, pH 7.3, 37 C
T5 construct: the whole entry is named here
T5 sequence: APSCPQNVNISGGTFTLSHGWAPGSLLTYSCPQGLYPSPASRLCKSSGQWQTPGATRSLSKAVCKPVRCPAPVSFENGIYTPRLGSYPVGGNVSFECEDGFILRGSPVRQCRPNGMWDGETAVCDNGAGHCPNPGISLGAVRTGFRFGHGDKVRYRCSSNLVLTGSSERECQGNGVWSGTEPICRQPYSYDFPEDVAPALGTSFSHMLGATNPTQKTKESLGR
Protocol: as §1
(§4) Purified human C2 zymogen and human C2a were tested at concentrations ranging from 1.9 to 500 nM while human C2b was tested at concentrations ranging from 1.9 to 1000 nM. All experiments were performed in HBS-EP buffer supplemented with 0.1% BSA at 37° C. and pH 7.3. Each antibody was tested against human C2 zymogen and human C2a in duplicate and against C2b in quadruplicate. The flow rate was set to 30 μL/min. Each analyte concentration was tested in duplicate.

[10] = target: T6, human C2a (activated human C2) (human, UniProt P06681 244-752); test: SPR, HBS-EP, pH 7.3, 37 C
T6 construct: the whole entry is named here; also called huC2a
T6 sequence: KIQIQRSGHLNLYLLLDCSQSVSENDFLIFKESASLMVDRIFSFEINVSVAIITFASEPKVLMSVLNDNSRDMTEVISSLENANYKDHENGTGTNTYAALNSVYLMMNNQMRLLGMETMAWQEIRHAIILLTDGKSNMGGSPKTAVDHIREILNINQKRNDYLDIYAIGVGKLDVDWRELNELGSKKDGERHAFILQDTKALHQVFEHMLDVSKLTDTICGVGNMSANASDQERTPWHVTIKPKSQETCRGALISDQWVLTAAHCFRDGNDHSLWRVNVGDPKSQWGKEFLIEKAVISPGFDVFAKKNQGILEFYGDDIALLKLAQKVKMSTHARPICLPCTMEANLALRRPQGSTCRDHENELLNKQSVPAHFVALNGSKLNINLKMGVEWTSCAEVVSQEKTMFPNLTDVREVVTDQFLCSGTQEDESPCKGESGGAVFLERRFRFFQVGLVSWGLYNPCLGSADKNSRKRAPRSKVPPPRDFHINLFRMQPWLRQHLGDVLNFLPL
Protocol: as §1, §4

[11] = target: T4, human complement C2 zymogen; test: SPR kinetics, captured antibody, analyte huC2 20 mM Ca^2+ (so in the source), pH 7.3
Protocol: as §1, §3

[12] = target: T7, cynomolgus monkey FcRn/β2m (cynomolgus monkey, UniProt Q8SPV9 24-297; Q8SPW0 21-119, limits assumed); test: SPR, immobilised antibody, cyno FcRn/b2m analyte, pH 6.0; pH 6.0
T7 construct: injected in solution over immobilised antibody; also called Cyno FcRn/β2m
T7 sequence (Q8SPV9 24-297 limits assumed, chain 1 of 2): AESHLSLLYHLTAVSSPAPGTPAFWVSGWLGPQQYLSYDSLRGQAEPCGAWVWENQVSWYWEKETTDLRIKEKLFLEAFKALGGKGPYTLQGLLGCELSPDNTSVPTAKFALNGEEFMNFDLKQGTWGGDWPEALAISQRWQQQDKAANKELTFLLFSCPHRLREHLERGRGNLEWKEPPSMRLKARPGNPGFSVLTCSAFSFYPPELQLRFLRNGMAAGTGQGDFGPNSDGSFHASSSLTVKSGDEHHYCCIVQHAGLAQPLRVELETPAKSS
T7 sequence (Q8SPW0 21-119 limits assumed, chain 2 of 2): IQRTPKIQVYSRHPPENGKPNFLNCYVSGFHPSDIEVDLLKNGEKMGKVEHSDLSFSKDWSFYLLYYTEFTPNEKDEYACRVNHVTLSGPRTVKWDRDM
Protocol: Anti-C2 mAbs (1 μg/mL at pH 5) were immobilized on a carboxylmethyldextran (CM5) sensorchip surface using standard EDC/NHS chemistry. Human and Cyno FcRn/β2m (40 μM) were prepared in running buffer (10 mM HEPES, 150 mM NaCl, 10 mM MES adjusted to either pH 6 or pH 7.3) and injected on the immobilized anti-C2 surface at concentrations ranging from 0.078 to 40 μM, prepared in two-fold dilutions in running buffer. Association and dissociation phases were monitored for 180 and 600 seconds, respectively. […] Double referenced sensorgrams were fitted to either a 1:1 kinetic model (pH 6), including a term for mass transport limitation or to a 1:1 steady state model (pH 7.3) where responses at the end of the association phase were plotted against respective concentrations.
Binding to both human and cynomolgus monkey FcRn was tested using the SPR methods described above.

[13] = target: T4, human complement C2 zymogen; test: SPR kinetics, captured antibody, analyte huC2 0 mM Ca^2+, pH 7.3
Protocol: as §1, §3

[14] = target: T4, human complement C2 zymogen; test: SPR steady state, captured antibody, analyte huC2 20 mM Ca^2+ (so in the source), pH 6.0
Protocol: as §1
(§5) Sensogram data was double-referenced against a reference anti-IgG surface (i.e. minus anti-C2 mAb) and blank buffer injections obtained within each experiment. The binding data was fit to 1:1 (kinetic or steady-state) model using local Rmax and null refraction index (RI=0) when appropriate. Buffers and solutions were filtered (0.22 μm) prior to use.
as §3

[15] = target: T4, human complement C2 zymogen; test: SPR kinetics, captured antibody, analyte huC2 2000 mM Ca^2+ (so in the source), pH 7.3
Protocol: as §1, §3

[16] = target: T4, human complement C2 zymogen; test: SPR kinetics, captured antibody, analyte huC2 200 mM Ca^2+ (so in the source), pH 7.3
Protocol: as §1, §3

[17] = target: T4, human complement C2 zymogen; test: SPR, human C2 zymogen analyte, HBS-EP, pH 7.3, 37 C
Protocol: as §1, §4

[18] = target: T4, human complement C2 zymogen; test: SPR steady state, captured antibody, analyte huC2 2000 mM Ca^2+ (so in the source), pH 6.0
Protocol: as §1, §3

[19] = target: T4, human complement C2 zymogen; test: SPR steady state, captured antibody, analyte huC2 200 mM Ca^2+ (so in the source), pH 6.0
Protocol: as §1, §5, §3

B1: RF16-203 (antibody, V domains shown)
VH: EVQLLESGGGLVQPGGSLRLSCAASGFTFSRYYMMWVRQAPGKGLEWVSSIGSSGGTTNYADSVKGRFTISRDNSKNTLYLQMNSLRAEDTATYYCAKGGMVLGVVNIWGQGTLVTVSS
VL: QSALTQPPSVSVSPGQTATITCSGDKLGEKYVSWYQQKPGQSPVVVIFQDIKRPSGIPERFSGSNSGNTATLTISGTQAMDEADYYCQTWGTGGIQVFGGGTKLTVLR
notes: Human antibody from a phage display library
- Kd (human complement C2 [1]): 2.5 nM
- IC50, inhibition of human classical complement pathway (Wieslab assay) (human complement C2 [2]): 5.4 nM
- IC50, inhibition of human lectin complement pathway (Wieslab assay) (human complement C2 [2]): 1.29 nM
- Kd (mouse C2): 153 nM
- IC50, inhibition of cyno classical pathway (hemolysis assay) (cynomolgus monkey C2 [3]): 361 nM
- IC50, inhibition of human classical pathway (hemolysis assay) (human complement C2 [4]): 42 nM
- Kd (cynomolgus monkey C2 [5]): 2.82 nM
- Kd (human complement C2 [6]): 12.6 nM
- IC50, inhibition of cynomolgus classical complement pathway (Wieslab assay) (cynomolgus monkey C2 [7]): 13.3 nM
- IC50, inhibition of cynomolgus lectin complement pathway (Wieslab assay) (cynomolgus monkey C2 [7]): 112 nM
- Kd (human complement C2 [8]): 73 nM

B2: RF16-226 (antibody, human IgG4 S228P, lambda)
heavy: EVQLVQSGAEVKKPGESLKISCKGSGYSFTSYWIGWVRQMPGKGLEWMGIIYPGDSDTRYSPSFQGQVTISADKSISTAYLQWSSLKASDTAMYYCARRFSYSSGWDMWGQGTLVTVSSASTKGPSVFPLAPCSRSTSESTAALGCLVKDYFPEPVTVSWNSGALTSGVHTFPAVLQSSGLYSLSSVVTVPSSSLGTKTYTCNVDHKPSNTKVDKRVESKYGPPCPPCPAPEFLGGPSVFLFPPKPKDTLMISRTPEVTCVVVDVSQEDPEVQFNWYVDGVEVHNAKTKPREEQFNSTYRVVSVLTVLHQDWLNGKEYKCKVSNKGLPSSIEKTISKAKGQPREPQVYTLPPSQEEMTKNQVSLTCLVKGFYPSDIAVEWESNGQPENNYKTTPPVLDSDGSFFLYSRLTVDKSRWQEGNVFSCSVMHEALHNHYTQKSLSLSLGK
light: SYELTQPPSVSVSPGQTARITCSGDALTSKYVAWYQQKSGLAPLLVIYEDTRRPSGIPAKFSGSSSGSVATLTISGAHGDDEADYYCYSTDASGHQRVFGGGTKLTVLSQPKAAPSVTLFPPSSEELQANKATLVCLISDFYPGAVTVAWKADGSPVKAGVETTKPSKQSNNKYAASSYLSLTPEQWKSHRSYSCQVTHEGSTVEKTVAPTECS
notes: Human antibody from a phage display library, unmodified Fc; also called WT
- Kd [9]: 93.6 nM
- binding result (human C2b): no binding (tested: C2b tested up to 1000 nM)
- binding result [10]: no binding (tested: C2a tested up to 500 nM)
- Kd [11]: 10.2 nM
- koff [11]: 0.0057 s⁻¹
- kon [11]: 569000 M⁻¹ s⁻¹
- Kd [12]: 2100 nM
- Kd [13]: 9.2 nM
- koff [13]: 0.00499 s⁻¹
- kon [13]: 546000 M⁻¹ s⁻¹
- Kd [14]: 87.4 nM
- Kd [15]: 11.1 nM
- koff [15]: 0.0062 s⁻¹
- kon [15]: 561000 M⁻¹ s⁻¹
- Kd [16]: 9.3 nM
- koff [16]: 0.0059 s⁻¹
- kon [16]: 631000 M⁻¹ s⁻¹
- Kd [17]: 8 nM
- Kd [18]: 111 nM
- Kd [19]: 94.2 nM
